In this assay the target is tubulins (tubulin dimers; paclitaxel-stabilized microtubules). Briefly: co-sedimentation; different concentrations of the protein added to paclitaxel-stabilized microtubules (prepolymerized from 8 uM tubulins in Fig 5A, 5 uM in S7 Fig) in PEMT buffer (1 mM MgCl2, 1 mM EGTA, 100 mM PIPES, 20 uM taxol, pH 6.9); 25 C 30 min; 100,000g 30 min; SDS-PAGE, Coomassie. The following applies: both partners purified.
Chain of tubulins (tubulin dimers; paclitaxel-stabilized microtubules) (chain, as listed by the source, chain 1 of 2): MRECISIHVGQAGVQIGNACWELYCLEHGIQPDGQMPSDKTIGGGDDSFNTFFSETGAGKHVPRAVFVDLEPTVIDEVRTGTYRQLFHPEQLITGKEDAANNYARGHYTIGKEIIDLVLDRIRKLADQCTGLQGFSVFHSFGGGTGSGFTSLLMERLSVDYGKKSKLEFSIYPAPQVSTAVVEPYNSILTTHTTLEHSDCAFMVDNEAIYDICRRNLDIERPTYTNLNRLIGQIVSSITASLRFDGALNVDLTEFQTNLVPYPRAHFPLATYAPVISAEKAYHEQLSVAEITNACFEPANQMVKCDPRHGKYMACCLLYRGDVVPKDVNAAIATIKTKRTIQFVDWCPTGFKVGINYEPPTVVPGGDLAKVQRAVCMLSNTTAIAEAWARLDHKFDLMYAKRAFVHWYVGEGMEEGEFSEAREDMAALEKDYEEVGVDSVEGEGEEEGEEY
Chain of tubulins (tubulin dimers; paclitaxel-stabilized microtubules) (chain, as listed by the source, chain 2 of 2): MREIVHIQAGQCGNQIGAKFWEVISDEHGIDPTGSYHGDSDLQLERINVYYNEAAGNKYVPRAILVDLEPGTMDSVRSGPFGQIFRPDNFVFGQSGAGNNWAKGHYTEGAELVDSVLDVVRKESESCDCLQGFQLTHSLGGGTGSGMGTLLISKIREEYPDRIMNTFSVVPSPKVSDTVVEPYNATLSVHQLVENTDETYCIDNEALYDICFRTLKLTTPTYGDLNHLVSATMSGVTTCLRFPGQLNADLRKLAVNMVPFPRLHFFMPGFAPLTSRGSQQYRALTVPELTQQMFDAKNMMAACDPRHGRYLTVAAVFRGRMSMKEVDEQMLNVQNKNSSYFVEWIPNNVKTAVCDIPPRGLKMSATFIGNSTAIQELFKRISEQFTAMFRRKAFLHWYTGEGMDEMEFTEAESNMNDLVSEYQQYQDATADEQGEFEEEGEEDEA

B1: MBP-TCS1 (TRICHOME CELL SHAPE 1 fused to maltose binding protein) (natural protein, Arabidopsis thaliana, UniProt Q0WSY2 1-982, looked up)
chain: MDRKSWPWKKKSSEKTATVTEVVDQENGKKPSYIQISFDQYTNLNGLKDEVKSYEEKVTKLEDQIKDLDLKLSTANADIVAKEVLVKQHSKVAEEAVTGWEKAEAEASALKTHLETITLAKLTVEDRAAHLDGALKECMRQIRSLKEENEQKLHDVIATKTNQMDNLRAEFESRIGEYEEELLRCGAENDALSRSLQERSNMLMRISEEKSQAESEIEHLKNNIESCEREINTLKYETHVITKELEIRNEEKNMSMRSAEAANKQHLEGVKKIAKLEAECQRLRTLVRKKLPGPAALAQMKMEVESLGFGDHRQDHRQRRSPVRPSSPLMSPMSHMSQVSEFSLDNMQKFHKENDLLTERLLAMEEETKMLKEALAKRNSELQVSRNLCAKTANRLQTLEAQMMSKSPTKRGFEMPAEIFSRQNASNPPSMASMSEDGNEDARSVAGSLMSELSQSNKDKANAKIKKTESANQLELMDDFLEMEKLACLPNGSNANGSTDHSSADSDAEIPPATQLKKRISNVLQSLPKDAAFEKILAEIQCAVKDAGVKLPSKSHGANLNGLTEEKVIAMSNETTEEKVTIVEVITQELSDALSQIYQFVTYLSKEATACSENRTFSQKVQEFSTTFEGVLGKEKTLVDFLFDLSRVLVEASELKIDVLGFHTSTVEIHSPDCIDKVALPENKALQKDSSGEHYQNGCSQSSDSEIPDDCNGTSGYEPKLATCKFTTEEFEGLKLEKEKAESNLASCEADLEATKTKLQETEKLLAEVKSDLESAQKSNGMGETQLKCMVESYRSLETRSSELEIELTSLKGKIENLEDELHDEKENHREALAKCQELEEQLQRNNQNCPNCSVIEDDPKSKQDNELAAAAEKLAECQETILLLGKQLKSMCPQTEQVASSPSQEQQALNPEEEEYATSTNPQDSKLSSPSDKDTPSMNTMKSPVASKHRHTKSNSSSSSSGLTPEKHSRGFSRFFSTKAK
notes: TCS1, Arabidopsis thaliana, At1g19835, a 982-amino-acid coiled-coil protein; also called MBP-TCS1 fusion protein; source: E. coli Rosetta (DE3); bacterial lysate in the pull-downs
Take B1: the “stoichiometry N” value was ~0.38 M MBP-TCS1 per mole of tubulin dimers.
